Measured values taken from the NTF2 design screens of Basanta et al. (2020).

assay: protease stability score; higher = more stable; yeast display proteolysis, trypsin and chymotrypsin;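 further: log10 excess protease needed over predicted unfolded state with 0 meaning unfolded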

| Sequence | protease stability score |
| --- | --- |
| DEKQDRDIQRVLHDNNPDHMKKLVDENAHAQVGNKTYHGREQVLTLIEHMVRTVDHMSIDKVEVKNGKADMDYHVNINGQSARVRVDVKFHNGRIKEIRIQATDKEVRDILDEAFD | 1.23 |
| DEKQKKDLLKQAVEMYLSGNSEEVRKLLKDDGEVEAGDQTYKGVEQVMKVVEQFKRYGVKLQMTDLKVDGDTVKVKAKLQNGGKTWEFEVTAQADGGKVDKITFKYSEEAKEDIEKG | -0.056 |
| DEKQLHRVRHFLEVVRQGDEDNLREMADPNVRMVVGDKQFHGREEAVKFLVHKAKELRIDVKFKTINVRGDKVKAVAEMTENQNGKPHHAKLTWEIQMSNGKIQQLDFKLST | 0.275 |
| DEKQLKHVQEWVETGDPDQFARNADPNAEIQIGNTTWQGREEIQKLAHRLKKQVDTQELKDIQVHGDHVLVNRVMEWDGHTFEFSMHIKVQNGRIKSVDVKVRDPSQQKELEDHLS | -0.087 |
| DEKQLKKAADRMVKAMETGDPQQINRMADENVRVEVGDKRISGEEDINRWLKELSDQADHARVKSIDASGNTVRVEMTIVVNGRETKLTIHVHFENGTAHHVRFQKS | 0.223 |
| DEKQLTLLRRIFEALLRNDEDKLKDLLDPNVKVRYGDKDLHGRENVAESIVRTNQEARFHVRRVTFRDHNGQAKVKVDFDQQHNGQPRSARLDVSMQRHNGRVKSISFKVDT | 0.649 |
| DEKQLVEVIREVIKALQQGHRDKVKKLGGPNVEVQAADYRNKGPEAILHMAEIVQRIGDEFQYRRTEQKGGTVTTTVEVHVGGHTVRYEVNAEAEGGKLKYWQADDDDKFIQHVKES | 0.725 |
| DEKQMEQVNKNMETGDWDKLQEQADEDVRLVVGEREFHGREQFSEFAKQAKRMVDDNTIHRIDLQGEKVKIKFVIKHNGRTVDVTVVMEVHNGRIKRYVLRARDEDAEDIIRKMLS | 0.902 |
| DEKQMRSVTKFIRVLQHGDNNQLRRLADPNAKARVGEKDVTGMDDILTRWVTFVEQARVKIDIREMDVSNGKVVIDAHIEIDINGRPLRDKITIIAEYRNGRLKFLELHVDQDFMRKVKR | 0.223 |
| DEKQNAEKVMTDVERNLREGDDNKIKEMADKDAKADVGEKKVTGREDIAKMLATLNKSVDEVTLDLKHVTTQGDFLNVKADIKWRHNGTTRQNKVEMWVNDFNGNVVIKHLRIG | 1.08 |
| DEKQNDVVDDFMRAVREGDPTQLKSLVDPNARIQIGDRTYTGMEEYVTHVHKDLRKMRIEIRIKDIKAHNGHARIEFEVINTDNGRPDKKRMDVEFRIHNGKLKEAQYKSDR | 0.766 |
| DEKQNNHFKDLMETNDWTQIAKQADENAKAKYGDKTVHGRENITHNNRRIKNRVDEMRIRNLTLEPNRIVQNFVVRVNGQDAQAVMTLEFENGRVKSVKLQARDTRVEEVLRKMMQ | 0.465 |
| DEKQNQEMQDMLHTGDFKRIADLVDENAEWNYGDKTYHGRKTIKKFLDAFQHRADHVEVKRFDVHNGHVSANMQMNVDGRRIDFRVVVHVENGRVKEYRMDFTDPRQQREVERQVE | 0.745 |
| DEKQQARDLVKELRDALKHGNEKQVVKMADENAKLQVGDKKVHGRKDIDKWAKDLRDRVDHVRLEVRSIDVHNGRMKFTATFTETHNGRKKERTMTMRARIQGDKFKIQQINLS | 0.247 |
| DEKQVHKMARQLVKALEHNDPQKVADLVDENVRASIGDTEYHGREHVKKAIKQMVDSIDHMRVRTVTAHNGTIDIDFQVVVNGRTERYQMRAEVHNGRIQSLRVDKR | 2.02 |
| DEKQVLELIRDVMKHVQNGNQEEVKKHGKPSVEVILFNERYTGPEALVRLAEFAQKLGAQFEYKETRHEGNKVKTKVEVTFGGTTVRYEVEVEAEGGKVVKWEVRASDEFDERVKKS | 1.09 |
| DEKQVVKVAKRVVQAVFEGDEELMKKMGKEDVEVEVGDTKYKGVDQAVDLVRKYKEFGLEFELKKYEVKGDTVTFHAKLYAGDKTIDVTVHYRADDGKMDETKVELSEEADKAFKQH | 1.1 |
| DEKRAHDFAQQVIRVIQDGDPREAQKLADENVRVEYGDRTVHGKEQISNFAQEFRTRVDHVKIDTWHAQGDKIVIHLKVNVNGREKRVVVVVEVHNGRVKSLVYKDG | 1.24 |
| DEKRALEVIKRYAEYLKRGNADEARKMGKEGVEAEFGDTHVHGADQVKEYVKKVKDVGAHVEYKEVEYKGDTVTVKTEVTRGDAKVTFEVKYQAKGDKVVNLEMKFNKEQMKEFKKS | -0.015 |
| DEKRARKLLEKAFELVQKGNKDTMRKIGKPNVKYKYVDQEYEGPEAMKFVIDVVKKIGAEVKKQEVEVKGDTAKATFQYRQGDKTVETRVEVKYEGDKLKEVRVEATDEVKKLVHQG | 0.009 |
| DEKREKDVAENFNTILENNDPDNLRKQAPPEAHAVIGDTRYRGMETFVTIMKKMWDEVDHFTVDDYQVQNGRVTIQAHVQVNGRQVTLHLEMIIDNGHITHIRMDPRQYRQFEG | -0.434 |
| DEKREQELAKKFADVFQRNNESELRKMIDENARYEIGDKTYRGTKAVKHVMKKVHDRADHVQVENFKAHNGTMELYLRYHVNGQDVRIIIELELRNGKVQHARYDVTSEEDRHNVEN | 0.041 |
| DEKRFTELAEKAFKIIMNGNEEEARKMGKPNVEYKYGDKEFEGEEAMQYAVQLVIKVGAEAKVRRMEVRGDTMRADFQYTLGDKTVQTTAQVQYEGDYAKKAENELSDEAKKIMHQG | 0.434 |
| DEKRLKELLEHVFKQVMNGNEEEVLKHGKPDVQYEYLTKRYEGEDAMRVVIKKIKRIGAEVQVKRREVHGNTMRADFDYHKGDQTVRTTAEAKYEGDQVKEFRVKVTEEHKQVIHQG | 0.104 |
| DEKRLKEVAKKVFEAVQKGDTEKLKKLGKEDGKFQFLDHRYKGKEEYARIMQKLKKHGVQFEIKKYQVKDNKVRMETVVTYGDQTFTVEAEARYEGGQLDEARVEMTEEAKERLKQG | -0.084 |
